Data as given in PMC8933513 (2022).
pKd: −log10 of the molar value. Several values for one entry are separate records, joined by “and”; a condition that tells them apart may be missing. Equal values may be shown once.

How the values were obtained:
[1] = target: human aminopeptidase N ectodomain, wild type (human) (UniProt P15144); assay: SPR; hAPN/pAPN WT or mutant immobilised on CM5 chips by amine coupling; serially diluted PDCoV RBD WT or mutant flowed over; BIAcore X-100, room temperature; 0.01 M HEPES, 0.15 M NaCl, 0.5% surfactant P20, 3 mM EDTA, pH 7.4; steady-state affinity model
[2] = target: porcine aminopeptidase N ectodomain, wild type (pig) (UniProt P15145); assay: as above
[3] = target: porcine aminopeptidase N ectodomain, wild type (pig) (UniProt P15145); assay: as above; remark: listed apart in the source
[4] = target: human aminopeptidase N (hAPN) ectodomain, residues 62-963, wild type (UniProt P15144); assay: SPR; details: parent: 3.71 ± 0.05 µM
[5] = target: human aminopeptidase N ectodomain, wild type (human) (UniProt P15144); assay: SPR; BIAcore X-100, room temperature; hAPN/pAPN WT or mutant immobilised on CM5 chips via amine coupling; serially diluted PDCoV RBD WT or mutant flowed over in HEPES buffer (0.01 M HEPES, 0.15 M NaCl, 0.5% surfactant P20, 3 mM EDTA, pH 7.4); steady-state affinity model; each of two experiments listed
[6] = target: porcine aminopeptidase N ectodomain, wild type (pig) (UniProt P15145); assay: as above
[7] = target: human aminopeptidase N ectodomain, wild type (human) (UniProt P15144); assay: SPR; hAPN/pAPN WT or mutant immobilised on CM5 chips by amine coupling; serially diluted PDCoV RBD WT or mutant flowed over; BIAcore X-100, room temperature; 0.01 M HEPES, 0.15 M NaCl, 0.5% surfactant P20, 3 mM EDTA, pH 7.4; steady-state affinity model; remark: listed apart in the source
[8] = target: porcine aminopeptidase N (pAPN) ectodomain, residues 58-961, wild type (UniProt P15145); assay: SPR; details: parent: 44.24 ± 2.21 µM
[9] = target: hAPN ectodomain K379A mutant (human) (UniProt P15144); assay: SPR; BIAcore X-100, room temperature; hAPN/pAPN WT or mutant immobilised on CM5 chips by amine coupling; serially diluted PDCoV RBD WT or mutant flowed over in HEPES buffer (0.01 M HEPES, 0.15 M NaCl, 0.5% surfactant P20, 3 mM EDTA, pH 7.4); steady-state affinity model
[10] = target: porcine aminopeptidase N (pAPN) ectodomain, residues 58-961, wild type (pig) (UniProt P15145); assay: as above
[11] = target: hAPN ectodomain Y316A mutant (human) (UniProt P15144); assay: as above
[12] = target: human aminopeptidase N (hAPN) ectodomain, residues 62-963, wild type (UniProt P15144); assay: as above
[13] = target: hAPN ectodomain E742A mutant (human) (UniProt P15144); assay: as above
[14] = target: human aminopeptidase N ectodomain K379A (human) (UniProt P15144); assay: SPR; hAPN/pAPN WT or mutant immobilised on CM5 chips by amine coupling; serially diluted PDCoV RBD WT or mutant flowed over; BIAcore X-100, room temperature; 0.01 M HEPES, 0.15 M NaCl, 0.5% surfactant P20, 3 mM EDTA, pH 7.4; steady-state affinity model
[15] = target: human aminopeptidase N ectodomain E742A (human) (UniProt P15144); assay: as above
[16] = target: human aminopeptidase N ectodomain H789A (human) (UniProt P15144); assay: as above
[17] = target: porcine aminopeptidase N ectodomain W424A (pig) (UniProt P15145); assay: as above
[18] = target: human aminopeptidase N ectodomain E426A (human) (UniProt P15144); assay: as above
[19] = target: human aminopeptidase N ectodomain W429A (human) (UniProt P15144); assay: as above
[20] = target: porcine aminopeptidase N ectodomain E421A (pig) (UniProt P15145); assay: as above
[21] = target: human aminopeptidase N ectodomain Y316A (human) (UniProt P15144); assay: as above
[22] = target: human aminopeptidase N ectodomain E745A (human) (UniProt P15144); assay: as above
Sequence of human aminopeptidase N ectodomain E745A (human) (P15144 62-963 E745A): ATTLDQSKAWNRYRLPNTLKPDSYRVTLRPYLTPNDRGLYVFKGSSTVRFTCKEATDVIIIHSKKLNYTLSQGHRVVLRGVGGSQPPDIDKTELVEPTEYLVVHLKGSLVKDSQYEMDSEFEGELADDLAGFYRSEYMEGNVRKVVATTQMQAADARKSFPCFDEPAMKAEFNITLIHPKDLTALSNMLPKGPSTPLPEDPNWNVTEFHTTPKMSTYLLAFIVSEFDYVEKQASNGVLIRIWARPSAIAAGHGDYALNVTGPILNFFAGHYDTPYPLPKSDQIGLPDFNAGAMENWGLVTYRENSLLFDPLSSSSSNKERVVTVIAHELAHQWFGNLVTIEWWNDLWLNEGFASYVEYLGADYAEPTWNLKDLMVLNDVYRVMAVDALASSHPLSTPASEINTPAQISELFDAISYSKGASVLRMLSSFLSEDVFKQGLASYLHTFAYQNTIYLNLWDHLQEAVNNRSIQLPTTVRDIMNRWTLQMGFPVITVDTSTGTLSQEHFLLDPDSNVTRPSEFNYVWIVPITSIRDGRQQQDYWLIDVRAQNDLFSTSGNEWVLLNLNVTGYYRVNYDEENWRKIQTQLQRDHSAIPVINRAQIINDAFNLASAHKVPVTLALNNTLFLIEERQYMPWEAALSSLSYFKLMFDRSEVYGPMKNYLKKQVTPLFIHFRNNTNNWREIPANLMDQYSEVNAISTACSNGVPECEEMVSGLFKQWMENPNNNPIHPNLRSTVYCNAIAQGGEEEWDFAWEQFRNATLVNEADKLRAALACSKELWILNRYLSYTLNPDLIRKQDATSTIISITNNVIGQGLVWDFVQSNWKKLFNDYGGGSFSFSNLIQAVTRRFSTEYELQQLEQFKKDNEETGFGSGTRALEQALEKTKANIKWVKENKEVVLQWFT

Sequence of human aminopeptidase N (hAPN) ectodomain, residues 62-963, wild type (P15144 62-963): as the sequence (P15144 62-963 E745A) above, with A684E counted along it
Sequence of human aminopeptidase N ectodomain, wild type (human) (P15144 62-963): as the sequence (P15144 62-963 E745A) above, with A684E counted along it
Sequence of porcine aminopeptidase N ectodomain, wild type (pig) (P15145 58-961): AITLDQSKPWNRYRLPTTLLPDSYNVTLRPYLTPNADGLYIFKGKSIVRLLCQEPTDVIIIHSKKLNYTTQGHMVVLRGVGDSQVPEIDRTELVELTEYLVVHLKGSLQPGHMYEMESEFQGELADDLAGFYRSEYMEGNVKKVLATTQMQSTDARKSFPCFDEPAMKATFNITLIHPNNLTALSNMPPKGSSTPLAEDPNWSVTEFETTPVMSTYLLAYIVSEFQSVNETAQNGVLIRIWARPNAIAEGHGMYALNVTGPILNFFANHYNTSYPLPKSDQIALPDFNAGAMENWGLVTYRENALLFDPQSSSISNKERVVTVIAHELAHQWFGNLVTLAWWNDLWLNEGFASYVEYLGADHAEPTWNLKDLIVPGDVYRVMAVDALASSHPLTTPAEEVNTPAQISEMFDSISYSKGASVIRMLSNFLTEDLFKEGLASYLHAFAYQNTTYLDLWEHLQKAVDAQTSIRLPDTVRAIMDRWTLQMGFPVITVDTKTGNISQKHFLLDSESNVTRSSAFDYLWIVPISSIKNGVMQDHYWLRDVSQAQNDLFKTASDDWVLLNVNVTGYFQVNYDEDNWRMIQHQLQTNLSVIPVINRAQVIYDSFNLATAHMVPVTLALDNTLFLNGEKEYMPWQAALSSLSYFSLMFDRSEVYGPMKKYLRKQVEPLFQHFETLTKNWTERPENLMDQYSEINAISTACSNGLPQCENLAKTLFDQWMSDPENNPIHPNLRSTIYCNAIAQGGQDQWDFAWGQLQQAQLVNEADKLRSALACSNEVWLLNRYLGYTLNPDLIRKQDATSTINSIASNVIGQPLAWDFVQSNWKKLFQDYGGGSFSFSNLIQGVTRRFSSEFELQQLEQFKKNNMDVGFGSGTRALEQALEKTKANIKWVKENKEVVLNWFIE
Sequence of porcine aminopeptidase N (pAPN) ectodomain, residues 58-961, wild type (P15145 58-961): as above
Sequence of porcine aminopeptidase N ectodomain W424A (pig) (P15145 58-961 W424A): as the sequence (P15145 58-961) above, with W367A counted along it
Sequence of human aminopeptidase N ectodomain H789A (human) (P15144 62-963 H789A): as the sequence (P15144 62-963 E745A) above, with A684E, H728A counted along it
Sequence of human aminopeptidase N ectodomain E426A (human) (P15144 62-963 E426A): as the sequence (P15144 62-963 E745A) above, with E365A, A684E counted along it
Sequence of human aminopeptidase N ectodomain K379A (human) (P15144 62-963 K379A): as the sequence (P15144 62-963 E745A) above, with K318A, A684E counted along it
Sequence of human aminopeptidase N ectodomain E742A (human) (P15144 62-963 E742A): as the sequence (P15144 62-963 E745A) above, with E681A, A684E counted along it
Sequence of porcine aminopeptidase N ectodomain E421A (pig) (P15145 58-961 E421A): as the sequence (P15145 58-961) above, with E364A counted along it
Sequence of human aminopeptidase N ectodomain Y316A (human) (P15144 62-963 Y316A): as the sequence (P15144 62-963 E745A) above, with Y255A, A684E counted along it
Sequence of human aminopeptidase N ectodomain W429A (human) (P15144 62-963 W429A): as the sequence (P15144 62-963 E745A) above, with W368A, A684E counted along it
Sequence of hAPN ectodomain K379A mutant (human) (P15144 62-963 K379A): as the sequence (P15144 62-963 E745A) above, with K318A, A684E counted along it
Sequence of hAPN ectodomain E742A mutant (human) (P15144 62-963 E742A): as the sequence (P15144 62-963 E745A) above, with E681A, A684E counted along it
Sequence of hAPN ectodomain Y316A mutant (human) (P15144 62-963 Y316A): as the sequence (P15144 62-963 E745A) above, with Y255A, A684E counted along it
Sequence of porcine aminopeptidase N (pAPN) ectodomain, residues 58-961, wild type (pig) (P15145 58-961): as the sequence (P15145 58-961) above

Which results are given for “PDCoV spike protein receptor binding domain N397A (domain or fragment)”?
pKd [1]: 5.48 and 5.44; pKd [2]: 4.47 and 4.27

What does the source list for “PDCoV spike protein receptor binding domain Y398A (domain or fragment)”?
pKd [3]: < 3.00; pKd [1]: 3.51 and 3.14

With “PDCoV spike (S) protein receptor binding domain (RBD), residues 300-419, wild type N397A” as the substance, how does the pKd [4] read?
Its pKd is 5.46.

“PDCoV spike protein receptor binding domain F318A (domain or fragment)” was tested. Which pKd [1] did it give?
Its pKd is 3.95 and 3.81.

And the pKd [2]?
The pKd was 3.09 and 3.29.

PDCoV RBD N397A (domain or fragment) was tested. Which pKd [5] did it give?
Its pKd is 5.48 and 5.44.

What about the pKd [6] of the same substance?
Its pKd is 4.47 and 4.27.

PDCoV RBD E320A (domain or fragment) was tested. Which pKd [5] did it give?
Its pKd is 3.87 and 3.73.

What about the pKd [6] of the same substance?
The pKd was 3.55 and 3.66.

With “PDCoV spike (S) protein receptor binding domain (RBD), residues 300-419, wild type Y398A” as the substance, how does the pKd [4] read?
The pKd was 3.28.

PDCoV RBD R357A (domain or fragment) was tested. Which pKd [5] did it give?
Its pKd is 3.70 and 3.63.

And the pKd [6]?
Its pKd is 4.56 and 4.22.

How did the pKd [7] turn out when “PDCoV spike protein receptor binding domain W396A (domain or fragment)” was run?
The pKd was under 3.00.

And the pKd [3]?
Its pKd is under 3.00.

What about the pKd [1] of the same substance?
The pKd was 1.06.

PDCoV RBD R322A (domain or fragment) was tested. Which pKd [5] did it give?
Its pKd is 3.59 and 3.47.

And the pKd [6]?
Its pKd is 3.34 and 3.26.

PDCoV RBD F318A (domain or fragment) was tested. Which pKd [5] did it give?
Its pKd is 3.95 and 3.81.

What about the pKd [6] of the same substance?
The pKd was 3.09 and 3.29.

What does the source list for “PDCoV spike protein receptor binding domain R322A (domain or fragment)”?
pKd [1]: 3.59 and 3.47; pKd [2]: 3.34 and 3.26

How did the pKd [8] turn out when “PDCoV spike (S) protein receptor binding domain (RBD), residues 300-419, wild type E320A” was run?
Its pKd is 3.60.

And the pKd [4]?
The pKd was 3.79.

With “PDCoV spike protein receptor binding domain R357A (domain or fragment)” as the substance, how does the pKd [1] read?
Its pKd is 3.70 and 3.63.

What about the pKd [2] of the same substance?
The pKd was 4.56 and 4.22.

“PDCoV spike protein receptor binding domain E320A (domain or fragment)” was tested. Which pKd [1] did it give?
Its pKd is 3.87 and 3.73.

And the pKd [2]?
Its pKd is 3.55 and 3.66.

With “PDCoV spike (S) protein receptor binding domain (RBD), residues 300-419, wild type (domain or fragment)” as the substance, how does the pKd [9] read?
Its pKd is 4.00.

What about the fold lower affinity than to hAPN [10] of the same substance?
Its fold lower affinity than to hAPN is 10 fold.

And the fold decrease in affinity against wild-type hAPN [11]?
Its fold decrease in affinity against wild-type hAPN is 10 fold.

And the pKd [12]?
The pKd was 6.00.

And the fold decrease in affinity against wild-type hAPN [13]?
The fold decrease in affinity against wild-type hAPN was 4 fold.

“PDCoV spike (S) protein receptor binding domain (RBD), residues 300-419, wild type R357A” was tested. Which pKd [4] did it give?
Its pKd is 3.67.

With PDCoV RBD W396A (domain or fragment) as the substance, how does the pKd [5] read?
Its pKd is 1.06.

How did the pKd [14] turn out when “PDCoV spike protein receptor binding domain, wild type (domain or fragment)” was run?
Its pKd is 3.43 and 3.29.

What about the pKd [15] of the same substance?
Its pKd is 4.85 and 4.88.

What about the pKd [16] of the same substance?
The pKd was 5.19 and 5.22.

What about the pKd [17] of the same substance?
The pKd was 3.95 and 3.92.

What about the pKd [18] of the same substance?
The pKd was 3.52 and 3.44.

And the pKd [19]?
Its pKd is 3.80 and 4.01.

And the pKd [20]?
Its pKd is 3.99 and 3.83.

What about the pKd [21] of the same substance?
The pKd was 4.45 and 4.41.

And the pKd [22]?
The pKd was 5.50 and 5.52.

And the pKd [1]?
Its pKd is 5.42 and 5.44.

What about the pKd [2] of the same substance?
Its pKd is 4.38 and 4.33.

Which results are given for “PDCoV spike (S) protein receptor binding domain (RBD), residues 300-419, wild type F318A”?
pKd [8]: 3.18; pKd [4]: 3.88

Which results are given for “PDCoV spike (S) protein receptor binding domain (RBD), residues 300-419, wild type R322A”?
pKd [8]: 3.30; pKd [4]: 3.53

How did the pKd [5] turn out when PDCoV RBD Y398A (domain or fragment) was run?
The pKd was 3.51 and 3.14.
